Measured values from IntAct's records for PubMed 22922713.

B1: WD repeat-containing protein 19 (Mus musculus), Q3UGF1 (parent)
chain: MKRVFSLLEKSWLGAPIQFAWQKSSGNYLAVTGADYIVKIFDRHGQKRSEISLPGNCVTMDWDKDGDILAVIAEKSSCIYLWDANTNKTSQLDNGMRDQMSFLLWSKIGSFLAVGTIKGNLLIYNHQTSRKIPVLGKHTKKITCGCWNSENLLALGGEDKMITVSNQEGDTIRQTPVKSEPSDIKFSMSKTDERISSAENTISAVVGKKMLFLFHLNEPDNPVDLEFQQAYGNIVCYSWYGDGYIMIGFSRGTFLAISTHFPEVGQEIFKARDHKDNLTSVALSQTLNKAATCGDNCIKIHDLTELRDMYAIINLDDENKGLGTLSWTDDGQLLALSTQRGSLHVFLTKLPILGDACHTRIAYLTSLLEVTVANLIEGEPPITVSVDVEPTFVAVGLYHLAVGMNNRAWFYVLGENVVKKLKDVEYLGTVASICLHSDYAAALFEGKIQLHLIENEMLDAQEERETRLFPAVDDKCRILCHALTSDFLIYGTDTGIIHYFFIEDWQFVNDYRHPVGVKKLFPDPNGTRLVFIDEKSDGFVYCPVNDATYEIPDFSPTIKGVLWENWPMDKGVFIAYDDDKVYTYAFHKDTIQGSKVILAGSTKLPFSHKPLLLYNGELTCQTQSGKINSIYLSTHSFLGSMKDTEPTDLRQMLTQTLLLKRFSDAWDICKMLNDRTSWSELAKACLHHMEVEFAIRVSRTMGDVGTVMSLEQIKGIEDYNLLAGHLAMFTNDFNLAQDLYLASNCPVAALEMRRDLQHWDSALQLAKRLAPDQIPFISKEYAIQLEFTGDYVNALAHYEKGITGDNKEHDEVCLAGVAQMSIRMGDIRRGANQALKHPSRVLKRDCGAILENMKQFSEAAQLYEKGQYYDRAASVYIRCKNWAKVGELLPHVSSPKIHLQYAKAKEADGRYKEAVVAYENAKQWNSVIRIYLDHLNNPEKAVSIVRETQSLDGAKMVARFFLQLGDYGSAIQFLVLSKCNNEAFTLAQQHNKMEIYADIIGAEDTTNEDYQSIALYFEGEKRHFQAGKFFLLCGQYSRALKHFLKCPSSEDNVAIEMAIETVGQAKDELLTNQLIDHLMGESDGMPKDAKYLFRLYMALKQYREAARTAIIIAREEQSAGNYRNAHDVLFSMYAELKAQKIKIPSEMATNLMILHSYILVKIHVKSGDHMKGARMLIRVANNISKFPSHIVPILTSTVIECHRAGLKNSAFSFAAMLMRPEYRNKIDAKYKKKIEAMVRRPDTSETEEATTPCPFCQFLLPECELLCPGCKNNIPYCIATGRHMLKDDWTMCPHCGFPALYSEFKILLNSESTCPMCSERLNSSQLKKITDCSQYLRTEME
partner: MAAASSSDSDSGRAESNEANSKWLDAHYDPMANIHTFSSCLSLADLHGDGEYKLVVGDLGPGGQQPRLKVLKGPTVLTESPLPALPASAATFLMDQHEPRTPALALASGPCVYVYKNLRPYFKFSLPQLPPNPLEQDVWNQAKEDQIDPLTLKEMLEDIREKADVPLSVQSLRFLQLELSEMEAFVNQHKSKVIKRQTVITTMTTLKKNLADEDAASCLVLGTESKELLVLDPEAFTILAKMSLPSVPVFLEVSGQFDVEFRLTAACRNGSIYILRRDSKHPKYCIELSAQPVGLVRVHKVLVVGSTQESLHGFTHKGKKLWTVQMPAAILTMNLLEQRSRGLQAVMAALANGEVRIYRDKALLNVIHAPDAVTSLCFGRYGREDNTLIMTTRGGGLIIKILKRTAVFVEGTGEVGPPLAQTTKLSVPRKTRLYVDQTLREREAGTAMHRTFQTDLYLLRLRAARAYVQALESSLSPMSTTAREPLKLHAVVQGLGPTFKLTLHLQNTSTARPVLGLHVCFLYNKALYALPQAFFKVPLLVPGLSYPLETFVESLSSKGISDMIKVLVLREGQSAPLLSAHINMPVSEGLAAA

Variants of: B1
Conditions: with bbs1_mouse Bbs1, Q3V3N7

Variant	effect of a mutation on the interaction
G341R	decreasing interaction strength
